Reference: patent publication US20090130710A1, “Enhancing vegetative protein production in transgenic plants using seed specific promoters” (priority 2005, published 2009)

T1: α-L-iduronidase (IDUA) activity (Homo sapiens, UniProt P35475)
T1 construct: arcelin-5-I (ARC5-I) signal peptide of Phaseolus vulgaris (N); made in house; host or cells: transgenic Arabidopsis thaliana T3 seeds (wild type and cgl mutant)
T1 sequence (P35475 28-653): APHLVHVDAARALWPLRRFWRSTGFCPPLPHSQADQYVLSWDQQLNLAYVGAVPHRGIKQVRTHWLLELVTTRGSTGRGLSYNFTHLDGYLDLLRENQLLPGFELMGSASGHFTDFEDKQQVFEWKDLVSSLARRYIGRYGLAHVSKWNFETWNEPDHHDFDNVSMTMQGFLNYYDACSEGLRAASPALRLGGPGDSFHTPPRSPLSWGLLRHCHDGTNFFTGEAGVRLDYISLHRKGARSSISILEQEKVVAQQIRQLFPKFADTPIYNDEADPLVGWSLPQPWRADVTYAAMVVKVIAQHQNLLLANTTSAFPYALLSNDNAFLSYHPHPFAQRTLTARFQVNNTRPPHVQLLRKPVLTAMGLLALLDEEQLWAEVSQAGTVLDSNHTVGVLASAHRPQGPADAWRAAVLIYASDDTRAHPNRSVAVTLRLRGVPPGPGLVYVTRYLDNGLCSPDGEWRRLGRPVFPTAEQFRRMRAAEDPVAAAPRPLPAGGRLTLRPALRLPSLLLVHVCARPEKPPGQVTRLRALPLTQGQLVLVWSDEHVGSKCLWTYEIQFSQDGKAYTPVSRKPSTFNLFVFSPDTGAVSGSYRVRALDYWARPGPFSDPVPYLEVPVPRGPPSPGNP


What was measured:
[1] = system: transgenic tobacco leaves co-expressing ABI3 and α-L-iduronidase; experiment: IDUA activity in leaves of tobacco co-transformants incubated on culture media with ABA or stress chemicals; assay type: cell-based
Protocol: FIG. 6. Use of ABA to enhance human α-L-iduronidase activity in plants co-expressing ABI3 and α-L-iduronidase.
FIG. 10. The effects of different treatments designed to enhance endogenous ABA levels on human α-L-iduronidase activities. Leaves of selected tobacco co-transformants (plants co-expressing constructs a and c [Arc-IDUA/ABI3] and plants co-expressing constructs a and d [Arc-IDUA-KDEL/ABI3]) were incubated for 6 days in media containing the following chemicals: (1) polyethylene glycol, PEG; (2) mM NaCl; (3) mM sucrose; (4) mM mannitol, or the leaves were kept on medium at 4 degrees celsius.
(§1) Stably transformed plants were cultured in magenta boxes at 25° C. and sub-cultured every 3 months. Healthy, fully expanded leaves from 4-week plants were used in the present study.

[2] = system: tobacco leaves co-expressing Arc-IDUA/ABI3 or Arc-IDUA-KDEL/ABI3; experiment: Western blot of α-L-iduronidase protein in tobacco co-transformant leaves; assay type: cell-based; conditions: day 6 of incubation; Arc-IDUA/ABI3 and Arc-IDUA-KDEL/ABI3 leaves
Protocol: FIG. 9. Western blot showing the effects of ABA at different concentrations of the levels of human α-L-iduronidase protein at day 6 of incubation. As with the activity data (FIG. 7), leaves of selected tobacco co-transformants (plants co-expressing constructs a and c [Arc-IDUA/ABI3] and plants co-expressing constructs a and d [Arc-IDUA-KDEL/ABI3]) incubated for 6 days in increasing concentrations of S(+)-ABA, show the maximum α-L-iduronidase protein accumulation levels at 150 μM S(+)-ABA.

[3] = system: transgenic tobacco leaves co-expressing construct (a) (the CnABI3 gene) and construct (b) (encoding GUS); experiment: GUS activity in transgenic tobacco leaves co-expressing CnABI3 and Vic-GUS; assay type: cell-based; conditions: increasing concentration of natural ABA up to 200 μM
Protocol: FIG. 4. Effect of natural S-(+)-ABA on recombinant bacterial β-glucuronidase (GUS) activities in transgenic tobacco leaves co-expressing construct (a) (the CnABI3 gene) and construct (b) (encoding GUS). […] There is a greater enhancement of GUS activities, with an increasing concentration of natural ABA up to 200 μM.
Transgenic tobacco plants were also generated by co-expressing the CnABI3 gene (construct a) and a gene construct containing the bacterial GUS gene coding region linked to a seed storage protein gene promoter—the vicilin gene promoter (construct b of FIG. 3) (Jiang et al., 1995).
as §1

[4] = system: tobacco leaves co-expressing Arc-IDUA/ABI3 or Arc-IDUA-KDEL/ABI3; experiment: Northern blot analysis of α-L-iduronidase mRNA in tobacco co-transformant leaves; assay type: cell-based; conditions: 100 μM S(+)-ABA, 6 days, compared to leaves in culture without ABA
Source text: FIG. 8. ABA acts at the transcriptional level to enhance the levels of human α-L-iduronidase.

[5] = target: T1, α-L-iduronidase (IDUA) activity; experiment: IDUA specific activity after purification from transgenic Arabidopsis seeds (4MU formation); assay type: biochemical; conditions: for Units/mg (specific activity): units are nmoles 4MU formed per minute
Source text: Table 1. Specific activities of Arabidopsis-derived α-L-iduronidase following purification of the recombinant enzyme from T3 seeds using a modified three-column procedure developed for extraction from human liver (Clements et al., 1989).

[6] = step Ab: combined elution fractions from antibody column
[7] = step BGel: combined elution fractions from Bio-Gel P100 column
[8] = step ConA: combined elution fractions from concanavalin A/Sepharose column
[9] = step Crude: clarified lysate (lipid removed)

Molecule	Units/mg (specific activity) [5, 6]	Units/mg (specific activity) [5, 7]	Units/mg (specific activity) [5, 8] [Units/mg]	Units/mg (specific activity) [5, 9] [Units/mg]	also measured
[Cl-].[Na+] [NaCl]	–	–	–	–	effect on α-L-iduronidase activities of treatments designed to enhance endogenous ABA levels ([1]; 6 days incubation, compared to ABA control (150 μM S(+)-ABA), NaCl 240 mM or 300 mM): dramatic effectiveness in enhancing α-L-iduronidase activities
CC1=CC(=O)CC(C)(C)[C@@]1(O)/C=C/C(C)=C\C(=O)O [ABA, S-(+)-ABA]	–	–	–	–	ABA concentration showing maximum α-L-iduronidase protein accumulation levels [2]: 150 µM; effect on recombinant GUS activities [3]: enhanced GUS activities; effect on steady-state mRNA levels encoding α-L-iduronidase [4]: enhanced steady-state mRNA levels; ABA concentration at which α-L-iduronidase activities reach a maximum ([1]; 6 days incubation in increasing concentrations, Arc-IDUA/ABI3 and Arc-IDUA-KDEL/ABI3 leaves): 150 µM; IDUA activities in leaves ([1]; ABA-treated leaves co-expressing ABI3 and IDUA-KDEL, 7 days of incubation): ≤ 16,000 pmol min^−1 mg^−1; enhancement of α-L-iduronidase activity versus transgenic control leaves (no ABA) ([1]; S(+)-ABA at 80 μM, day 7 of incubation, leaves co-expressing constructs a and d (Arc-IDUA-KDEL/ABI3)): ~58 fold
IDUA derived from transgenic WT seeds: recombinant human α-L-iduronidase purified from transgenic Arabidopsis wild-type T3 seeds (protein, UniProt P35475 28-653, looked up, made in Arabidopsis seeds) Alpha-L-iduronidase: APHLVHVDAARALWPLRRFWRSTGFCPPLPHSQADQYVLSWDQQLNLAYVGAVPHRGIKQVRTHWLLELVTTRGSTGRGLSYNFTHLDGYLDLLRENQLLPGFELMGSASGHFTDFEDKQQVFEWKDLVSSLARRYIGRYGLAHVSKWNFETWNEPDHHDFDNVSMTMQGFLNYYDACSEGLRAASPALRLGGPGDSFHTPPRSPLSWGLLRHCHDGTNFFTGEAGVRLDYISLHRKGARSSISILEQEKVVAQQIRQLFPKFADTPIYNDEADPLVGWSLPQPWRADVTYAAMVVKVIAQHQNLLLANTTSAFPYALLSNDNAFLSYHPHPFAQRTLTARFQVNNTRPPHVQLLRKPVLTAMGLLALLDEEQLWAEVSQAGTVLDSNHTVGVLASAHRPQGPADAWRAAVLIYASDDTRAHPNRSVAVTLRLRGVPPGPGLVYVTRYLDNGLCSPDGEWRRLGRPVFPTAEQFRRMRAAEDPVAAAPRPLPAGGRLTLRPALRLPSLLLVHVCARPEKPPGQVTRLRALPLTQGQLVLVWSDEHVGSKCLWTYEIQFSQDGKAYTPVSRKPSTFNLFVFSPDTGAVSGSYRVRALDYWARPGPFSDPVPYLEVPVPRGPPSPGNP	9,033 Units/mg	14,700 Units/mg	29	6.3	specific activity of the enzyme ([5]; following chromatography on Bio-Gel P-100, purified from T3 seeds): 14,700 nmol 4 MU/min/mg TSP
IDUA derived from transgenic cg/mutant seeds: recombinant human α-L-iduronidase purified from transgenic Arabidopsis cgl mutant seeds (N-acetylglucosaminyl transferase I deficient) (protein, UniProt P35475 28-653, looked up, made in Arabidopsis cgl mutant seeds) Alpha-L-iduronidase: APHLVHVDAARALWPLRRFWRSTGFCPPLPHSQADQYVLSWDQQLNLAYVGAVPHRGIKQVRTHWLLELVTTRGSTGRGLSYNFTHLDGYLDLLRENQLLPGFELMGSASGHFTDFEDKQQVFEWKDLVSSLARRYIGRYGLAHVSKWNFETWNEPDHHDFDNVSMTMQGFLNYYDACSEGLRAASPALRLGGPGDSFHTPPRSPLSWGLLRHCHDGTNFFTGEAGVRLDYISLHRKGARSSISILEQEKVVAQQIRQLFPKFADTPIYNDEADPLVGWSLPQPWRADVTYAAMVVKVIAQHQNLLLANTTSAFPYALLSNDNAFLSYHPHPFAQRTLTARFQVNNTRPPHVQLLRKPVLTAMGLLALLDEEQLWAEVSQAGTVLDSNHTVGVLASAHRPQGPADAWRAAVLIYASDDTRAHPNRSVAVTLRLRGVPPGPGLVYVTRYLDNGLCSPDGEWRRLGRPVFPTAEQFRRMRAAEDPVAAAPRPLPAGGRLTLRPALRLPSLLLVHVCARPEKPPGQVTRLRALPLTQGQLVLVWSDEHVGSKCLWTYEIQFSQDGKAYTPVSRKPSTFNLFVFSPDTGAVSGSYRVRALDYWARPGPFSDPVPYLEVPVPRGPPSPGNP	2,700 Units/mg	7,800 Units/mg	8	2.04	–
